Measured values: US20170101476A1 (Novartis, published 2017)
Where two headings read alike, the source gives them in different places.

T1: Human CXCR2 (human, UniProt P25025 1-360)
T1 sequence: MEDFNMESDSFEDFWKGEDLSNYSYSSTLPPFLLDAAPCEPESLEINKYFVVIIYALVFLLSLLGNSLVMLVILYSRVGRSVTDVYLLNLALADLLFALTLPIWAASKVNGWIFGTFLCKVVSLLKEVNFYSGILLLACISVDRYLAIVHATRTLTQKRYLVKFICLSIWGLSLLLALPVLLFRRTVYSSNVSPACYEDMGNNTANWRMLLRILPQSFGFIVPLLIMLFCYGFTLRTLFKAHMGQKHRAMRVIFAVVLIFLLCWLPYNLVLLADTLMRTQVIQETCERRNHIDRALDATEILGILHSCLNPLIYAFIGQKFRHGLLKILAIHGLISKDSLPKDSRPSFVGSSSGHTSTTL

T2: Cynomolgus CXCR2 (cynomolgus, UniProt Q28519 3-353 (rhesus entry))
T2 chain: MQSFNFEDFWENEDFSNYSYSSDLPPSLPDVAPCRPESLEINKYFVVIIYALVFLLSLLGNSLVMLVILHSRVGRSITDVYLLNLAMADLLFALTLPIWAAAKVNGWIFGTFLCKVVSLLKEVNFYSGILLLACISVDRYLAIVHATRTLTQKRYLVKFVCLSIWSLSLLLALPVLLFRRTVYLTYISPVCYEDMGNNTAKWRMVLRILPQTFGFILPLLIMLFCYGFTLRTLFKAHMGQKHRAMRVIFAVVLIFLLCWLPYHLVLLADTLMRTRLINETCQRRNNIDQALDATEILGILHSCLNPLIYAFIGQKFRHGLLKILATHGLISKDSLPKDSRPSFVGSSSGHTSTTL

B1: 127D01 (VHH, not shown: small tags and cut ends)
VHH: EVQLVESGGGLVQAGESLRLSCAASGSTFDFKVMGWYRQPPGKQREGVAAIRLSGNMHYAESVKGRFTISKANAKNTVYLQMNSLRPEDTAVYYCKVNIRGQDYWGQGTQVTVSS
B2: CXCR20028 (other, not shown: small tags and cut ends)
chain: EVQLVESGGGLVQPGGSLRLSCVASGSIVRINTMGWYRQTPGKQRELVADITSGGNINYIDAVKGRFTISRDNTKNTVYLQMNSLKPEDTAVYYCNAEIVVLVGVWTQRARTGNYWGQGTQVTVSSGGGGSGGGGSGGGGSGGGGSGGGGSGGGGSGGGGSEVQLVESGGGLVQAGGSLTLSCAVSGSTFRINTMGWYRRAPGKQRELVAARDRGGYINYVDSVKGRFTVSRDNAKPTMYLQMNSLKPEDTAVYYCHAGTQDRTGRNFDRWGQGTQVTVSS
B3: CXCR20014 (bispecific antibody, not shown: small tags and cut ends)
chain: EVQLVESGGGLVQPGGSLRLSCVASGSIVRINTMGWYRQTPGKQRELVADITSGGNINYIDAVKGRFTISRDNTKNTVYLQMNSLKPEDTAVYYCNAEIVVLVGVWTQRARTGNYWGQGTQVTVSSGGGGSGGGGSGGGGSGGGGSGGGGSGGGGSGGGGSEVQLVESGGELVQPGGSLRLSCAASGSILTINAMGWYRQAPGKQRELVVRRTRGGSTTYQDSVKGRFTISADIAKKTMYLQMNSLKPEDTAVYYCMLDDRGGVYWGQGTQVTVSS
B4: CXCR20026 (bispecific antibody, not shown: small tags and cut ends)
chain: EVQLVESGGGLVQPGGSLRLSCVASGRIFSSNAMGWFRQAPGKEREFVAAITWRSGGSAYYADSAKGRFTISRDNAKNTVYLQMNSLKPEDTAVYYCAAGGSSWLSFPPDYWGQGTQVTVSSGGGGSGGGGSGGGGSGGGGSGGGGSGGGGSGGGGSEVQLVESGGGLVQAGESLRLSCAASGSTFDFKVMGWYRQPPGKQREGVAAIRLSGNMHYAESVKGRFTISKANAKNTVYLQMNSLRPEDTAVYYCKVNIRGQDYWGQGTQVTVSS
B5: CXCR20033 (bispecific antibody, not shown: small tags and cut ends)
chain: EVQLVESGGGLVQPGGSLRLSCVASGRIFSSNAMGWFRQAPGKEREFVAAITWRSGGSAYYADSAKGRFTISRDNAKNTVYLQMNSLKPEDTAVYYCAAGGSSWLSFPPDYWGQGTQVTVSSGGGGSGGGGSGGGGSGGGGSGGGGSGGGGSGGGGSEVQLVESGGELVQPGGSLRLSCAASGSILTINAMGWYRQAPGKQRELVVRRTRGGSTTYQDSVKGRFTISADIAKKTMYLQMNSLKPEDTAVYYCMLDDRGGVYWGQGTQVTVSS
B6: CXCR20035 (other, not shown: small tags and cut ends)
chain: EVQLVESGGGLVQAGGSLTLSCAVSGSTFRINTMGWYRRAPGKQRELVAARDRGGYINYVDSVKGRFTVSRDNAKPTMYLQMNSLKPEDTAVYYCHAGTQDRTGRNFDRWGQGTQVTVSSGGGGSGGGGSGGGGSGGGGSGGGGSGGGGSGGGGSEVQLVESGGGLVQPGGSLRLSCVASGRIFSSNAMGWFRQAPGKEREFVAAITWRSGGSAYYADSAKGRFTISRDNAKNTVYLQMNSLKPEDTAVYYCAAGGSSWLSFPPDYWGQGTQVTVSS
B7: CXCR20034 (bispecific antibody, not shown: small tags and cut ends)
chain: EVQLVESGGGLVQAGGSLRLSCAASGRTFSDYAMGWFRQAPGKEREFVAAITWNGGRVFYTASVKGRFTISRDNAKNTMYLQMNSLKPEDTAVYYCAADKDRRTDYLGHPVAYWGQGTQVTVSSGGGGSGGGGSGGGGSGGGGSGGGGSGGGGSGGGGSEVQLVESGGELVQPGGSLRLSCAASGSILTINAMGWYRQAPGKQRELVVRRTRGGSTTYQDSVKGRFTISADIAKKTMYLQMNSLKPEDTAVYYCMLDDRGGVYWGQGTQVTVSS
B8: CXCR20020 (bispecific antibody, not shown: small tags and cut ends)
chain: EVQLVESGGGLVQAGESLRLSCAASGSTFDFKVMGWYRQPPGKQREGVAAIRLSGNMHYAESVKGRFTISKANAKNTVYLQMNSLRPEDTAVYYCKVNIRGQDYWGQGTQVTVSSGGGGSGGGGSGGGGSGGGGSGGGGSGGGGSGGGGSEVQLVESGGGLVQAGGSLRLSCAASGRTFSDYAMGWFRQAPGKEREFVAAITWNGGRVFYTASVKGRFTISRDNAKNTMYLQMNSLKPEDTAVYYCAADKDRRTDYLGHPVAYWGQGTQVTVSS
B9: CXCR20030 (other, not shown: small tags and cut ends)
chain: EVQLVESGGGLVQAGGSLRLSCAASGRTFSDYAMGWFRQAPGKEREFVAAITWNGGRVFYTASVKGRFTISRDNAKNTMYLQMNSLKPEDTAVYYCAADKDRRTDYLGHPVAYWGQGTQVTVSSGGGGSGGGGSGGGGSGGGGSGGGGSGGGGSGGGGSEVQLVESGGGLVQAGGSLTLSCAVSGSTFRINTMGWYRRAPGKQRELVAARDRGGYINYVDSVKGRFTVSRDNAKPTMYLQMNSLKPEDTAVYYCHAGTQDRTGRNFDRWGQGTQVTVSS

Experiments:
Assay in all cases: cell-based or functional assay
Human CXCR2 [1] = target: T1, Human CXCR2
Cynomolgus CXCR2 [2] = target: T2, Cynomolgus CXCR2
Human CXCR2 [3] = target: T1, Human CXCR2; remark: listed apart in the source
Human CXCR2 [4] = target: T1, Human CXCR2; remark: listed apart in the source
Cynomolgus CXCR2 [5] = target: T2, Cynomolgus CXCR2
Human CXCR2 [6] = target: T1, Human CXCR2; remark: listed apart in the source
Cynomolgus CXCR2 [7] = target: T2, Cynomolgus CXCR2
Human CXCR2 [8] = target: T1, Human CXCR2; remark: listed apart in the source

Row | Binder | Human Chemotaxis IC50 (GROα) (Human CXCR2 [1]) [nM] | HumanWBSC IC50 (rhGROα) (Human CXCR2 [1]) [nM] | FLIPR IC50, GRO-α induced intracellular calcium release (Cynomolgus CXCR2 [2]) [nM] | FLIPR IC50, GRO-α induced intracellular calcium release (Human CXCR2 [3]) [nM] | [35S]GTPγS % inhibition max, GRO-α (Human CXCR2 [3]) [%] | [35S]GTPγS accumulation IC50, GRO-α (Human CXCR2 [3]) [nM] | [35S]GTPγS % inhibition of max, GRO-α (Human CXCR2 [4]) [%] | [35S]GTPγS accumulation IC50, GRO-α (Human CXCR2 [4]) [nM] | Cynomologus WBSC IC50 (vs rhGROα) (Cynomolgus CXCR2 [5]) [nM] | Human WBSC IC50 (vs rhGROα) (Human CXCR2 [6]) [nM] | FLIPR IC50, GRO-α induced intracellular calcium release (Cynomolgus CXCR2 [7]) [nM] | FLIPR IC50, GRO-α induced intracellular calcium release (Human CXCR2 [8]) [nM] | [35S]GTPγS % inhibition of max, ENA-78 (Human CXCR2 [4]) [%] | [35S]GTPγS % inhibition of max, IL-8 (Human CXCR2 [4]) [%] | [35S]GTPγS accumulation IC50, ENA-78 (Human CXCR2 [4]) [nM] | [35S]GTPγS accumulation IC50, IL-8 (Human CXCR2 [4]) [nM] | Human Chemotaxis IC50 (vs rhGROα) (Human CXCR2 [6]) [nM]
1 | B1 | 3.9 | 4.9 | 753 | 21.9 | 66 | 12.5 | – | – | – | – | – | – | – | – | – | – | –
2 | B2 | – | – | – | – | – | – | 100 | 1.38 | 1.72 | 0.43 | 17 | 21.9 | – | – | – | – | –
3 | B3 | – | – | – | – | – | – | 100 | 1.38 | 0.16 | 0.445 | 13.7 | 6.84 | 100 | 100 | 1.66 | 1.13 | 0.16
4 | B4 | – | – | – | – | – | – | 100 | 0.809 | 0.26 | 0.165 | 9.1 | 12.3 | – | – | – | – | 0.14
5 | B5 | – | – | – | – | – | – | 100 | 1.01 | 0.42 | 0.345 | 4.46 | 17.9 | – | – | – | – | 0.145
6 | B6 | – | – | – | – | – | – | 100 | 0.844 | 0.43 | 0.24 | 8.72 | 10.2 | 100 | 100 | 1.17 | 0.717 | –
7 | B7 | – | – | – | – | – | – | 100 | 0.995 | 0.44 | 0.29 | 9.47 | 11.8 | – | – | – | – | 0.145
8 | B8 | – | – | – | – | – | – | 100 | 0.634 | 0.12 | 0.17 | 1.64 | 6.98 | 100 | 100 | 0.707 | 0.619 | 0.145
9 | B9 | – | – | – | – | – | – | 100 | 1.02 | 0.56 | 0.215 | 6.36 | 11.8 | 100 | 100 | 1.3 | 1.09 | –
